Measurements reported in patent US20120172293A1 (Takeda / Millennium, published 2012).

Assays:
[1] = target: human Y2 receptor (human) (UniProt P49146); test: RBA: displacement of [125I]-PYY from hY2R/CHO membranes
[2] = target: human Y2 receptor (human) (UniProt P49146); test: cell-based or functional assay

Sequence of human Y2 receptor (human) (P49146 whole entry): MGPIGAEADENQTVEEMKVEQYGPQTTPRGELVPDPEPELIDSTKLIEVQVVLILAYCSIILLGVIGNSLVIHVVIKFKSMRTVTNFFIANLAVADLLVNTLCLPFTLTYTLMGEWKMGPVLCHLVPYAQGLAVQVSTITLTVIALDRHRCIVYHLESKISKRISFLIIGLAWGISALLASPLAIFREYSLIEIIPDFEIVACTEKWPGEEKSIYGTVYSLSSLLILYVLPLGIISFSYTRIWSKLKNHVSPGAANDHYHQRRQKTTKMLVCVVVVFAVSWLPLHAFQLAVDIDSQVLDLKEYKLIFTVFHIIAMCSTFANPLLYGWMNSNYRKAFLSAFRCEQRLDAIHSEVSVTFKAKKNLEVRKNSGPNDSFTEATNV

Substance | IC50 Ratio (IC50 compound/IC50 PYY(3-36)) [1] | GBA EC50 Ratio ([35S]GTPγS binding) (EC50 compound/EC50 PYY(3-36)) [2]
[(1S)-1-Carboxyethyl]carbamoyl-[D-Pro24, Pya(4)26, Cha27,36, Aib28,31, Lys30]-PYY(23-36) (peptide) | 0.78 | 0.94
Ac-[D-Pro24, Pya(4)26, Cha27,36, Aib28,31, Lys(Ac)30]-PYY(23-36) (peptide) | 0.97 | 1.1
[(1S)-1-Carboxy-3-methylbutyl]carbamoyl-[D-Pro24, Pya(4)26, Cha27,36, Aib28,31, Lys30]-PYY(23-36) (peptide) | 0.82 | 0.82
Ac-[D-Pro24, Pya(4)26, Cha27,36, Iva28,31, Lys30]-PYY(23-36) (peptide) | 0.31 | 1
Ac-[D-Pro24, Pya(4)26, Cha27,36, Aib28,31, Nle30]-PYY(23-36) (peptide) | 0.96 | 1.4
(3-carboxypropyl)carbamoyl-[D-Pro24, Pya(4)26, Cha27,36, Aib28,31, Lys30]-PYY(23-36) (peptide) | 1.2 | 0.97
Ac-[D-Pro24, Pya(4)26, Cha27,36, Aib28, Lys30, D-Iva31]-PYY(23-36) (peptide) | 0.55 | 1.6
3-Carboxypropionyl-[D-Pro24, Pya(4)26, Cha27,36, Aib28,31, Lys30]-PYY(23-36) (peptide) | 0.96 | 1.2
Ac-[D-Hyp24, Pya(4)26, Cha27,36, Aib28,31, Lys30]-PYY(23-36) (peptide) | 1.1 | 0.86
Isobutanoyl-[D-Pro24, Pya(4)26, Cha27,36, Aib28,31, Lys30]-PYY(23-36) (peptide) | 0.79 | 0.89
Ac-[D-Pro24, Pya(4)26, Cha27,36, D-Iva28, Lys30, Iva31]-PYY(23-36) (peptide) | 3.4 | 1.1
Ac-[D-Pro24, Pya(4)26, Cha27,36, Aib28,31, Har30]-PYY(23-36) (peptide) | 0.36 | 0.79
Ac-[D-Pro24, Pya(4)26, Cha27,36, Aib28,31, Orn30]-PYY(23-36) (peptide) | 1.5 | 0.83
Ac-[D-Pro24, Pya(4)26, Cha27,36, Iva28, Lys30, D-Iva31]-PYY(23-36) (peptide) | 0.36 | 0.67
Ac-[D-Hyp24, Iva25, Pya(4)26, Cha27,36, Leu(Me)28, Lys30, Aib31]-PYY(23-36) (peptide) | 0.97 | 1.5
(2-Carboxyethyl)carbamoyl-[D-Pro24, Pya(4)26, Cha27,36, Aib28,31, Lys30]-PYY(23-36) (peptide) | 1.3 | 0.94
4-Imidazolecarbonyl-[D-Hyp24, Iva25, Pya(4)26, Cha27,36, αMePhe28, Lys30, Aib31]-PYY(23-36) (peptide) | 0.65 | 1

Substance | IC50 Ratio (IC50 compound/IC50 PYY(3-36)) [1] | GBA EC50 Ratio ([35S]GTPγS binding) (EC50 compound/EC50 PYY(3-36)) [2]
Ac-[D-Pro24, Pya(4)26, Cha27,36, D-Iva28,31, Lys30]-PYY(23-36) (peptide) | 0.7 | 1.6
Ac-[D-Pro24, Pya(4)26, Cha27, Aib28,31, Lys30, Phe(3Me)36]-PYY(23-36) (peptide) | 0.91 | 1.2
Ac-[D-Pro24, Pya(4)26, Nal(2)27, Aib28,31, Lys30, Cha36]-PYY(23-36) (peptide) | 7.2 | 4
[(1S)-1-carboxy-2-hydroxyethyl]carbamoyl-[D-Pro24, Pya(4)26, Cha27,36, Aib28,31, Lys30]-PYY(23-36) (peptide) | 0.52 | 1.3
4-Pyridinecarbonyl-[D-Hyp24, Iva25, Pya(4)26, Cha27,36, Leu(Me)28, Lys30, Aib31]-PYY(23-36) (peptide) | 0.93 | 1.6
4-Imidazolecarbonyl-[D-Hyp24, Iva25,28, Pya(4)26, Cha27,36, Lys30, Aib31]-PYY(23-36) (peptide) | 0.99 | 1.3
(2-amino-2-oxoethyl)carbamoyl-[D-Pro24, Pya(4)26, Cha27,36, Aib28,31, Lys30]-PYY(23-36) (peptide) | 1.2 | 0.74
Ac-[D-Pro24, Pya(4)26, Cha27,36, Aib28,31, Hse30]-PYY(23-36) (peptide) | 5.8 | 5.7
Ac-[D-Pro24, Pya(4)26, Cha27,36, Iva28, Lys30, Aib31]-PYY(23-36) (peptide) | 0.33 | 1.2
Ac-[D-Pro24, Pya(4)26, Cha27,36, Aib28,31, Lys(Hexyl)30]-PYY(23-36) (peptide) | 1 | 1.3
Ac-[D-Pro24, Ala(4Pip)26, Cha27,36, Aib28,31, Lys30]-PYY(23-36) (peptide) | 1.2 | 1.5
(Carboxymethyl)carbamoyl-[D-Pro24, Pya(4)26, Cha27,36, Aib28,31, Lys30]-PYY(23-36) (peptide) | 1.2 | 1.2
Ac-[D-Pro24, Pya(4)26, Cha27,36, Aib28,31, Ala(4-pip)30]-PYY(23-36) (peptide) | 0.72 | 0.8
(Tetrahydro-2H-pyran-4-yl)carbonyl-[D-Pro24, Pya(4)26, Cha27,36, Aib28,31, Lys30]-PYY(23-36) (peptide) | 1.1 | 0.71
Ac-[D-Pro24, Har25, Pya(4)26, Cha27,36, Aib28,31, Lys30]-PYY(23-36) (peptide) | 0.82 | 1.4
Ac-[D-Pro24, Nar25, Pya(4)26, Cha27,36, Aib28,31, Lys30]-PYY(23-36) (peptide) | 1.1 | 1.8
4-Pyridinecarbonyl-[D-Hyp24, Iva25,28, Pya(4)26, Cha27,36, Lys30, Aib31]-PYY(23-36) (peptide) | 1.3 | 1.6
